Where a chain is given by its changes, count along the chain named. Each block holds one binder with its values, some of them ahead of it.
Assays:
[1] = target: T1, purified EGFR (Sigma-Aldrich, cat no. E3641) (UniProt P00533 25-1210, limits assumed); test: ELISA, plate coated with purified EGFR, anti-human IgG Fc-HRP detection
T1 construct: Bought preparation coated on ELISA plates

[2] = target: T2, EGFR-vIII deletion mutant expressed on transfected Ba/F3 and A431 cells (UniProt P00533 25-1210); test: flow cytometry on Ba/F3 cells transfected with EGFR-vIII, FITC anti-human IgG F(ab')2 detection
T2 construct: whole, on cells; Deletion variant, not expressible as substitutions; also called de2-7 EGFR

- EC50 [1]: 0.081 µg/mL
B1: Fully human IgG1,κ antibody 018 (P- or LC1006-018) (antibody, V domains shown)
VH: EVQLVESGGGLVQPGGSLRLSCAASGFTFSSYWMNWVRQAPGKGLEWVANIKKDGSEKYYVDSVKGRFTISRDNAKNSLYLQMNSLRAEDTAVYYCARDLGWGWGWYFDLWGRGTLVTVSS
VL: not shown
notes: Human IgG1,κ; P1006-018 uncloned, LC1006-018 cloned hybridoma; also called P1006-018

- EC50 [1]: 0.117 µg/mL
B2: Fully human IgG1,κ antibody 003 (P- or LC1006-003) (antibody, V domains shown)
VH: EVQLVESGGGLVQPGGSLRLSCAASGFTFSSYWMTWVRQAPGKGLEWVANIQQDGSEKNYLDSVKGRFTISRDNAKNSLSLQMNSLRAEDTAVYYCARTYSGFEDFWGQGTLVTVSS
VL: EIVLTQSPATLSLSPGERATLSCRASQSVSSYLAWYQQKPGQAPRLLIFDASNRATGIPARFSGSGSGTDFTLTISSLEPEDFAVYYCQQRSNWPPWTFGQGTKVEIK
notes: Human IgG1,κ; P1006-003 is the hybridoma before cloning, LC1006-003 the clone by limiting dilution; also called P1006-003
- binding result [2]: no binding (tested: saturating concentrations)

- EC50 [1]: 2.46 µg/mL
B3: Fully human IgG1,κ antibody 008 (P- or LC1006-008) (antibody, V domains shown)
VH: B2 VH with T35S, Q52K, K58E, L61V, I70V, S80Y, F106Y
VL: B2 VL
notes: Human IgG1,κ; P1006-008 uncloned, LC1006-008 cloned hybridoma; also called P1006-008
- binding result [2]: no binding (tested: saturating concentrations)

Source: patent publication US20110256142A1 (Genmab, published 2011)
